# Experimental data reported in IntAct's records for PubMed 18728196.
# Target: pstp_myctu pstP (UniProt P9WHW5)
substance,measurement,value
"ECF RNA polymerase sigma factor SigH (Mycobacterium tuberculosis (strain ATCC 25618 / H37Rv)), P9WGH9 T26A;T106A",effect of a mutation on the interaction,disrupting interaction
